From patent publication US20060223096A1 (GLYCART BIOTECHNOLOGY, published 2006)

Target: T1, human melanoma chondroitin sulfate proteoglycan (MCSP) (human, UniProt Q6UVK1 30-2322)
T1 construct: whole, on cells; also called HMW-MAA; high molecular weight-melanoma-associated antigen
Assay: flow cytometry on A375 human melanoma cells; reference antibody of the comparison
Experimental: The purified, monomeric humanized antibody variants were tested for binding to the human HMW-MAA/MCSP antigen on the A375 human melanoma cell line, using a flow cytometry-based assay. 200,000 cells (in 180 μl FACS buffer (PBS containing 2% FCS and 5 mM EDTA) were transferred to 5 ml polystyrene tubes and 20 μl 10 fold concentrated anti-MCSP antibody (primary antibody) samples (1-5000 ng/ml final concentration) or PBS only were added. After gently mixing the samples, the tubes were incubated at 4° C. for 30 min in the dark. Subsequently, samples were washed twice with FACS buffer and pelleted at 300 g for 3 min. Supernatant was aspirated off and cells were taken up in 50 μl FACS buffer and 2 μl secondary antibody (anti-Fc-specific F(ab′)2-FITC fragments (Jackson Immuno Research Laboratories, USA)) was added and the tubes were incubated at 4° C. for 30 min. Samples were washed twice with FACS buffer and taken up in 500 μl of FACS buffer for analysis by Flow Cytometry. Binding was determined by plotting the geometric mean fluorescence against the antibody concentrations.

T1 sequence (Q6UVK1 30-2322): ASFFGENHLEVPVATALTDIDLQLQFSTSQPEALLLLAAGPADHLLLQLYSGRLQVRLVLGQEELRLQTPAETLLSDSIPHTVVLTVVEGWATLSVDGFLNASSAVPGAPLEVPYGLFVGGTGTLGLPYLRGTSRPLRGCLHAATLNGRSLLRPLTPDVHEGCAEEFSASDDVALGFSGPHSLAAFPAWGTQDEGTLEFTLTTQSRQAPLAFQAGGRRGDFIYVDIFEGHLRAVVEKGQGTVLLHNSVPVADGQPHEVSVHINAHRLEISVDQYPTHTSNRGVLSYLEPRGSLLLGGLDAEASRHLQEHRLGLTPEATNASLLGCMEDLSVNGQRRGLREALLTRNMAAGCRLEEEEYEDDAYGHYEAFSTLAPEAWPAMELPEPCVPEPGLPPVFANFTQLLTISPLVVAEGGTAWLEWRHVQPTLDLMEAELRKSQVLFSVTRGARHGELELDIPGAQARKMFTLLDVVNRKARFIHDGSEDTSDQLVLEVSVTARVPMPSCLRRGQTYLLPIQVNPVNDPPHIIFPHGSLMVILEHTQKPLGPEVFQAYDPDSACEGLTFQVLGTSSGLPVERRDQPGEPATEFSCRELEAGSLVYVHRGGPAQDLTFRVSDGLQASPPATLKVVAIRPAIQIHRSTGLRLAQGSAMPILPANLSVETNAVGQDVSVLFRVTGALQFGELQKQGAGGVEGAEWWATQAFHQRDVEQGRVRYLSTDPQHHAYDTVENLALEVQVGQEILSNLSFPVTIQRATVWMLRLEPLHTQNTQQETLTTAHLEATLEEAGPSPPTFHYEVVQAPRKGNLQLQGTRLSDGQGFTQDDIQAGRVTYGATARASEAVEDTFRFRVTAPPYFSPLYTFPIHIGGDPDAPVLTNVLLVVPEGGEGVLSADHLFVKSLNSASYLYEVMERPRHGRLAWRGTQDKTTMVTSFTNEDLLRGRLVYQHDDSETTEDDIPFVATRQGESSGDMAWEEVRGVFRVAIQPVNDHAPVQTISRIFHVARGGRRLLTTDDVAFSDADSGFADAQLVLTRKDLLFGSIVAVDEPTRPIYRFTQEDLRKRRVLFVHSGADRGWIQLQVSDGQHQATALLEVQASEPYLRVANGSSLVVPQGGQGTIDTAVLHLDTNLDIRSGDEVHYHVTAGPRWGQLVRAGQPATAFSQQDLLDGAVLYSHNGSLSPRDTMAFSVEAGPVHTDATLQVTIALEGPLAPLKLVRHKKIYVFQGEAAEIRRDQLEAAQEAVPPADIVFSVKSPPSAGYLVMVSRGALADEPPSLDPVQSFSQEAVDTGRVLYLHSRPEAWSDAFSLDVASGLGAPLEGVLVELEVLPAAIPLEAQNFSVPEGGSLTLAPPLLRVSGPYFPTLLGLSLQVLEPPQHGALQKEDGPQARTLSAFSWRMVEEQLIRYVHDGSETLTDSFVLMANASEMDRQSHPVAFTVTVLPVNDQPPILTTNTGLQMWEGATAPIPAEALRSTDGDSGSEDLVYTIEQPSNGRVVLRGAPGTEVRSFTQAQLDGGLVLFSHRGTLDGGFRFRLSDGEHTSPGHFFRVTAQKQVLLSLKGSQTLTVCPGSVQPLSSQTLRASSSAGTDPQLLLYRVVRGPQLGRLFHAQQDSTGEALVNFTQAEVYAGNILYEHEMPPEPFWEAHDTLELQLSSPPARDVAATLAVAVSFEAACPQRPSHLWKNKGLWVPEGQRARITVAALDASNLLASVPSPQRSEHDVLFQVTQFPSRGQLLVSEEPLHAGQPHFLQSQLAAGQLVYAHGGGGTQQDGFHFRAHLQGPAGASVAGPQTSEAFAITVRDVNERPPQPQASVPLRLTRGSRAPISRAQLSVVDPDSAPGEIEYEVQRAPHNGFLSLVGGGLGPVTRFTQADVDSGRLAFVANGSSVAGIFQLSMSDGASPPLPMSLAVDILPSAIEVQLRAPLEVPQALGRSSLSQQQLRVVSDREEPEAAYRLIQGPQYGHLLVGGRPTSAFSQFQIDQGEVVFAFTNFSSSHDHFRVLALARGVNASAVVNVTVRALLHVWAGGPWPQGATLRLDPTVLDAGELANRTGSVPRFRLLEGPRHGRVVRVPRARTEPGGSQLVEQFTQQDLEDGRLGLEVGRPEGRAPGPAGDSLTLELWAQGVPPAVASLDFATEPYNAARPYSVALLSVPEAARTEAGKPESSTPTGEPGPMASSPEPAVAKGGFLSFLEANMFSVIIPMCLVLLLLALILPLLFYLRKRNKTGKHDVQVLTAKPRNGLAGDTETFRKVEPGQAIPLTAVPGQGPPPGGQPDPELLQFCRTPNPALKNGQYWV

B1: ch-225.28S antibody (murine 225.28S VH and VL with human constant regions) (antibody, V domains shown)
VH: QVKLQQSGGGLVQPGGSMKLSCVVSGFTFSNYWMNWVRQSPEKGLEWIAEIRLKSNNFGRYYAESVKGRFTISRDDSKSSAYLQMINLRAEDTGIYYCTSYGNYVGHYFDHWGQGTTVTVSS
VL: DIELTQSPKFMSTSVGDRVSVTCKASQNVDTNVAWYQQKPGQSPEPLLFSASYRYTGVPDRFTGSGSGTDFTLTISNVQSEDLAEYFCQQYNSYPLTFGGGTKLEIK
notes: also called mVH/mVL
binding result: binds
